Measured values published in patent publication US20230331862A1 (SHANGHAI GENBASE BIOTECHNOLOGY, published 2023).

Assays:
[1] = target: T1, CEACAM5 (CD66e) on tumour cells (human, UniProt P06731 35-685, glycosylated (natural, as on tumour cells)); assay: flow cytometry on KATO3 cells, anti-human IgG Fc-APC
T1 construct: whole, on cells; One molecule for CEACAM5 on all three cell lines; the cell line is named under assay; also called natural CEACAM5 antigen; Lovo cells
T1 sequence (looked up): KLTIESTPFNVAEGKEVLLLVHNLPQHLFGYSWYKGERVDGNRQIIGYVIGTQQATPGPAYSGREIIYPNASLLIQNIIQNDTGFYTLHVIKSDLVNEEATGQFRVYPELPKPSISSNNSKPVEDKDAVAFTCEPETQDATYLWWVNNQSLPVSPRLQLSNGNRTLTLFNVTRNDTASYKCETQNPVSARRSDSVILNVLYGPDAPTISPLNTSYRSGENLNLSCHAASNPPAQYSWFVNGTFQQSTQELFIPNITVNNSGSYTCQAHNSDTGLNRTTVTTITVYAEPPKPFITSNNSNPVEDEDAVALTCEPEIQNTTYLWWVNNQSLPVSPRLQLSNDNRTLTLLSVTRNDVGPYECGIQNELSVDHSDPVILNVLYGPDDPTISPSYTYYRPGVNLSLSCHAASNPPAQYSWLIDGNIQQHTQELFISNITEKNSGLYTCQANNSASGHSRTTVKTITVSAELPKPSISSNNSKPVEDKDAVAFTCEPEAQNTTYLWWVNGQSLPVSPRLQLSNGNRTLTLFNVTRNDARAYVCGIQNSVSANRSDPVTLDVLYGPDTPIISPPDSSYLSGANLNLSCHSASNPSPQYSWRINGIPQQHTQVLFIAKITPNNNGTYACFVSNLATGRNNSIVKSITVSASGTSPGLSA
Experimental: (§1) After the cells were digested with TrypLE, they were centrifuged and resuspended in DPBS solution containing 2% BSA (FACS buffer solution, 4° C.), and added into a U-bottom 96-well plate, 5×10⁵/100 μl/well, and antibody diluted in concentration gradient was added, incubated at 4° C. for 1 hour, the supernatant was discarded after centrifugation; 100 μl of solution containing anti-human IgG Fc-APC secondary antibody was added and incubated at 4° C. for 1 hour, washing was performed once with FACS buffer, resuspending was performed in 200 μl FACS buffer, and the fluorescence signal value was read on BD Cantoll.

[2] = target: T2, recombinant CEACAM5 antigen (Sinobiological, 11077-H08H) (UniProt P06731 35-685); assay: ELISA, coated recombinant CEACAM5-His 1 µg/ml, anti-human IgG Fc-HRP
T2 construct: Bought protein; also called CEACAM5-His recombinant protein; CEACAM5-His antigen; not shown: His tag
T2 sequence (looked up): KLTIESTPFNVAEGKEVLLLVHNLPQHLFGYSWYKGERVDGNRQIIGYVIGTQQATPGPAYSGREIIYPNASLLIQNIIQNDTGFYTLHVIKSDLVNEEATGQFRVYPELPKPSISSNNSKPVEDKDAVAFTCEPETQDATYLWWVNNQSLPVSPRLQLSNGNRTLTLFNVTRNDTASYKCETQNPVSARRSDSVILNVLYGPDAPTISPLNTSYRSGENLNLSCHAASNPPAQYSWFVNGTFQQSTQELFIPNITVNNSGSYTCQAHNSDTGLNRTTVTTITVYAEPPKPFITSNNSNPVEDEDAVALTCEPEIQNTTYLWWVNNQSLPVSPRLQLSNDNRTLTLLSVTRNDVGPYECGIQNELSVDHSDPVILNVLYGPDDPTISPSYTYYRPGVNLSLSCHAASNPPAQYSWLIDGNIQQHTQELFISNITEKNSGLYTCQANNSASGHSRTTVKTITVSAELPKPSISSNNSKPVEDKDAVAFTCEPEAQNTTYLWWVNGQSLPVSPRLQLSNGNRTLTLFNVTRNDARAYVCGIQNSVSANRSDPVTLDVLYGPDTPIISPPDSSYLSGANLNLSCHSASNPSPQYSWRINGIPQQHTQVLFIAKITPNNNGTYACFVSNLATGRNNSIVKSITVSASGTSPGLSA
Experimental: The recombinant CEACAM5 antigen (Sinobiological, 11077-H08H) was diluted to 1 μg/ml with DPBS solution, added to a 96-well plate, 100 μl per well, and coated overnight at 2-8° C.; the coating solution was discarded, washing was performed twice with PBS solution, PBS solution containing 2% BSA was added, and blocked at room temperature for 2 hours; the blocking solution was discarded, the antibody diluted in concentration gradient was added, and incubated at 37° C. for 1 hour; the antibody solution was discarded, and washing was performed for 4 times with PBS solution containing 0.05% Tween 20 (PBST solution); anti-human IgG Fc-HRP secondary antibody was added and incubated at 37° C. for 30 minutes; washing was performed for 4 times with PBST solution, TMB chromogenic substrate was added, color development was performed for 5-10 minutes, and the reaction was terminated with equal volume of 1M H₂SO₄; the absorbance at 450 nm was read on a microplate reader.

[3] = target: T1, CEACAM5 (CD66e) on tumour cells; assay: flow cytometry on LS174T cells, anti-human IgG Fc-APC
Experimental: as §1

[4] = target: T1, CEACAM5 (CD66e) on tumour cells; assay: flow cytometry on Lovo monoclonal clone 5-2, fluorescent secondary antibody
Experimental: (§2) After labeling, anti-mouse Fc-PE fluorescence-labeled secondary antibody was added, sorted into 96-well plate by BD FACS Aria, after monoclonal culture was carried out, MN14 was used to detect the expression of monoclonal CEACAM5, and the results were as follows: […]

[5] = target: T1, CEACAM5 (CD66e) on tumour cells; assay: flow cytometry on Lovo monoclonal clone 1-1, fluorescent secondary antibody
Experimental: as §2

[6] = target: T1, CEACAM5 (CD66e) on tumour cells; assay: flow cytometry on Lovo monoclonal clone 1-2, fluorescent secondary antibody
Experimental: as §2

[7] = target: T1, CEACAM5 (CD66e) on tumour cells; assay: flow cytometry on Lovo monoclonal clone 2-1, fluorescent secondary antibody
Experimental: as §2

[8] = target: T1, CEACAM5 (CD66e) on tumour cells; assay: flow cytometry on Lovo monoclonal clone 6-2, fluorescent secondary antibody
Experimental: as §2

[9] = target: T1, CEACAM5 (CD66e) on tumour cells; assay: flow cytometry on Lovo monoclonal clone 4-2, fluorescent secondary antibody
Experimental: as §2

[10] = target: T1, CEACAM5 (CD66e) on tumour cells; assay: flow cytometry on Lovo monoclonal clone 3-2, fluorescent secondary antibody
Experimental: as §2

[11] = target: T1, CEACAM5 (CD66e) on tumour cells; assay: flow cytometry on Lovo monoclonal clone 7-2, fluorescent secondary antibody
Experimental: as §2

[12] = target: T1, CEACAM5 (CD66e) on tumour cells; assay: flow cytometry on Lovo monoclonal clone 7-1, fluorescent secondary antibody
Experimental: as §2

[13] = target: T1, CEACAM5 (CD66e) on tumour cells; assay: flow cytometry on Lovo monoclonal clone 5-1, fluorescent secondary antibody
Experimental: as §2

[14] = target: T1, CEACAM5 (CD66e) on tumour cells; assay: flow cytometry on Lovo monoclonal clone 6-1, fluorescent secondary antibody
Experimental: as §2

[15] = target: T1, CEACAM5 (CD66e) on tumour cells; assay: flow cytometry on Lovo monoclonal clone 8-2, fluorescent secondary antibody
Experimental: as §2

[16] = target: T1, CEACAM5 (CD66e) on tumour cells; assay: flow cytometry on Lovo monoclonal clone 4-1, fluorescent secondary antibody
Experimental: as §2

[17] = target: T1, CEACAM5 (CD66e) on tumour cells; assay: flow cytometry on Lovo monoclonal clone 8-1, fluorescent secondary antibody
Experimental: as §2

[18] = target: T1, CEACAM5 (CD66e) on tumour cells; assay: flow cytometry on Lovo monoclonal clone 3-1, fluorescent secondary antibody
Experimental: as §2

[19] = target: T1, CEACAM5 (CD66e) on tumour cells; assay: flow cytometry on Lovo monoclonal clone 2-2, fluorescent secondary antibody
Experimental: as §2

B1: M18 (7G1) chimeric recombinant antibody (antibody, V domains shown)
VH: QIQLVQSGPELKKPGETVKISCKASGYTFTTYGMTWVKQAPGKGLKWMGWINTYSGVPTYIDDFKGRFAFSLETSASTAYLQINNLKNEDTATYFCGRKDLLGFMDYWGQGTSVTVSS
VL: DIQMTQSPSSLSASLGGKVTITCKTSQDINKFMAWYQHKPGKGPRLLIRYTSTLQPGIPSRFSGSGSGRDYSFSIRNLEPEDIATYYCLQYDDLTWTFGGGTKLEI
EC50 [1]: 13.9 µg/mL | EC50 [2]: 0.016 µg/mL | EC50 [3]: 11.9 µg/mL

B2: anti-CEACAM5 antibody hMN14 (antibody, human IgG1, kappa, V domains shown)
VH: EVQLVESGGGVVQPGRSLRLSCSASGFDFTTYWMSWVRQAPGKGLEWIGEIHPDSSTINYAPSLKDRFTISRDNAKNTLFLQMDSLRPEDTGVYFCASLYFGFPWFAYWGQGTPVTVSS
VL: DIQLTQSPSSLSASVGDRVTITCKASQDVGTSVAWYQQKPGKAPKLLIYWTSTRHTGVPSRFSGSGSGTDFTFTISSLQPEDIATYYCQQYSLYRSFGQGTKVEIKR
notes: T0002 prints whole heavy and light chains under the labels 'hMN14 VH' and 'hMN14 VL'
CEACAM5 positive ratio, % [4]: 96.9% | CEACAM5 positive ratio, % [5]: 90.5% | CEACAM5 positive ratio, % [6]: 95.6% | CEACAM5 positive ratio, % [7]: 95.6% | CEACAM5 positive ratio, % [8]: 88.1% | CEACAM5 positive ratio, % [9]: 82.7% | CEACAM5 positive ratio, % [10]: 95.9% | CEACAM5 positive ratio, % [11]: 96.9% | CEACAM5 positive ratio, % [12]: 93.9% | CEACAM5 positive ratio, % [13]: 76.6% | CEACAM5 positive ratio, % [14]: 98.6% | CEACAM5 positive ratio, % [15]: 96.8% | CEACAM5 positive ratio, % [16]: 93.7% | CEACAM5 positive ratio, % [17]: 97.9% | CEACAM5 positive ratio, % [18]: 97.8% | CEACAM5 positive ratio, % [19]: 96.4%

B3: M7 (11B6) chimeric recombinant antibody (antibody, V domains shown)
VH: EVQLQQSGAELVRPGASVKLSCTVSGFNIKDDYMHWVKQRPEQGLEWIGWIDPENGDTEYASKFQGKATITADTSSNSAYLQLSSLTSEDTAVYYCTFIYYVNPHYYAMDYWGQGTSVTVSS
VL: QIVLTQSPAIMSASPGEKVTITCSATSSVSYMHWFQQKPGTSPKLWIYSTSNLASGVPARFSGSGSGTSYSLTISRVEAEDAATYYCQQRSSYPLTFGAGTKLELK
EC50 [1]: 2.6 µg/mL | EC50 [2]: 0.008 µg/mL | EC50 [3]: 1.9 µg/mL

B4: M17 (6A8) chimeric recombinant antibody (antibody, V domains shown)
VH: EVQLQQSGAELVRPGASVKLSCTASGFNIKDDYMHWVKQRPEQGLEWIGWIDPENGDTEYASKFQGKATITADTSSNTAYLLLSSLTSEDTAVYYCTTIYYYGSRGAMDYWGQGTSVTVSS
VL: QIVLTQSPAIMSASPGEKVTITCSASSSVSYMHWFQQKPGTSPKLWIYTTSTLASGVPARFSGSGSGTSYFLTISRMEAEDAATYYCHQRSSYPLTFGAGTKLELK
EC50 [1]: 2.7 µg/mL | EC50 [2]: 0.013 µg/mL | EC50 [3]: 1.5 µg/mL
